What was measured:
[1] = target: human MLC1 fused to C-terminal GFP (Homo sapiens (Human)., UniProt Q15049); assay: western blot
[2] = target: mouse MLC1 fused to C-terminal GFP (Mus musculus (Mouse)., UniProt Q8VHK5); assay: western blot
[3] = target: chicken MLC1 fused to C-terminal GFP (Gallus gallus, UniProt A0A1D5PIT5); assay: western blot
Flag-tagged human MLC1 = Flag-tagged human MLC1 (human, UniProt Q15049); assay: western blot
Flag-tagged mouse MLC1 = Flag-tagged mouse MLC1 (mouse, UniProt Q8VHK5); assay: western blot
Chain of Flag-tagged mouse MLC1 (Q8VHK5 whole entry): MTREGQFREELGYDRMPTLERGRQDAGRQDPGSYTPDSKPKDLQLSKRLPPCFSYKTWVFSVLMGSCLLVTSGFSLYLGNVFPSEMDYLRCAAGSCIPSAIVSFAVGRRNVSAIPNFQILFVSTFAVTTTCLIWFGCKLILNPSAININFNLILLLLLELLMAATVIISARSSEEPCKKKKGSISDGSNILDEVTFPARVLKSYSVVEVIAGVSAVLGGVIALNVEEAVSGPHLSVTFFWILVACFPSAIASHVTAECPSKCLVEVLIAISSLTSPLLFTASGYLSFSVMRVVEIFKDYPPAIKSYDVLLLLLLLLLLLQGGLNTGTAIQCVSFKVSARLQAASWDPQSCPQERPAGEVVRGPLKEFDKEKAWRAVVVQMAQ

endogenous human MLC1 = endogenous human MLC1 (Homo sapiens (Human)., UniProt Q15049); assay: immunostaining of cells or tissue
Chain of endogenous human MLC1 (Q15049 whole entry): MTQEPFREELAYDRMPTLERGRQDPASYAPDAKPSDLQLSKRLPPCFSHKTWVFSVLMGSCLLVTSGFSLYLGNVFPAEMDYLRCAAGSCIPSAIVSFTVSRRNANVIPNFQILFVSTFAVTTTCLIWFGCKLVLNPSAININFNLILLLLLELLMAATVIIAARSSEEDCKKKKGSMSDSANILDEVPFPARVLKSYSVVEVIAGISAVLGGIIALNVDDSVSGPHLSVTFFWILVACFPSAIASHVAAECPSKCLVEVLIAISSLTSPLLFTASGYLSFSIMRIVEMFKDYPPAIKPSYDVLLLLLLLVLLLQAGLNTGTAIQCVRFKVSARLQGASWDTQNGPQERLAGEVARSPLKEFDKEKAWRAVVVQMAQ
Flag::hMLC1::GFP = Flag::hMLC1::GFP (Homo sapiens (Human)., UniProt Q15049); assay: immunostaining of cells or tissue
Chain of Flag::hMLC1::GFP (Q15049 whole entry): as above

endogenous mouse MLC1 = endogenous mouse MLC1 (Mus musculus (Mouse)., UniProt Q8VHK5); assay: co-IP
Chain of endogenous mouse MLC1 (Q8VHK5 whole entry): as the sequence (Q8VHK5 whole entry) above

[4] = target: T1, MLC1-derived peptide (antigen peptide of the cryo-EM complex) (Mus musculus); assay: cryo-EM structure
T1 chain: YDRMPTLERGRQDA

Measured: binding result

Chain of Flag-tagged human MLC1 (Q15049 whole entry): as the sequence (Q15049 whole entry) above
Chain of human MLC1 fused to C-terminal GFP (Q15049 whole entry, the tested form may be a part): as the sequence (Q15049 whole entry) above
Chain of mouse MLC1 fused to C-terminal GFP (Q8VHK5 whole entry, the tested form may be a part): as the sequence (Q8VHK5 whole entry) above

B1: monoclonal antibody 37E5 (anti-MLC1), whole IgG (antibody, V domains shown)
VH: QIQLVQSGPDLKKPGETVKISCKASGYTFTNYGMSWVKQAPGKVLKWMGWINTYTGEPTYADDFKGRFAFSLETSANTAYLQINNLKNEDTATYFCAREGATSGFPYWGQGTLVTVSA
VL: DIVMSQSPSSLAVSAGEKVTMSCRSSQSLLNSRTRKNYLAWYQQKPGQSPKLLIYWASTRESGVPDRFTGSGSGTDFTLTISSVQAEDLAVYYCKQSYDLPYTFGGGTKLEIK
not listed: [4]
binds: all other assays above

B2: 37E5 Fab fragment (Fab, V domains shown)
VH: QIQLVQSGPDLKKPGETVKISCKASGYTFTNYGMSWVKQAPGKVLKWMGWINTYTGEPTYADDFKGRFAFSLETSANTAYLQINNLKNEDTATYFCAREGATSGFPYWGQGTLVTVSA
VL: DIVMSQSPSSLAVSAGEKVTMSCRSSQSLLNSRTRKNYLAWYQQKPGQSPKLLIYWASTRESGVPDRFTGSGSGTDFTLTISSVQAEDLAVYYCKQSYDLPYTFGGGTKLEIK
binds: [4]

Reference: publication doi:10.1101/2025.10.08.681078 (bioRxiv, 2025)
